# Assay results: patent US20230357367A1
# Experiments:
# Assay in all cases: DELFIA, IgG titrated on captured biotin-peptide
# Set-up in all cases: unit not given beside the values
# [1] = biological target: SARS-CoV-2 spike S2 peptide 1149-1167 (C-terminal end of the stem helix), biotinylated (SARS-CoV-2)
# [2] = biological target: SARS-CoV-2 spike S2 peptide 1157-1171, biotinylated (SARS-CoV-2)
# [3] = biological target: SARS-CoV-2 spike S2 peptide 1153-1167, biotinylated (SARS-CoV-2)
# [4] = biological target: SARS-CoV-2 spike S2 peptide 1133-1147, biotinylated (SARS-CoV-2)
# [5] = biological target: SARS-CoV-2 spike S2 peptide 1143-1162 (stem helix region), biotinylated (SARS-CoV-2)
# [6] = biological target: SARS-CoV-2 spike S2 peptide 1137-1151, biotinylated (SARS-CoV-2)
# [7] = biological target: SARS-CoV-2 spike S2 peptide 1149-1163, biotinylated (SARS-CoV-2)
# [8] = biological target: SARS-CoV-2 spike S2 peptide 1141-1155, biotinylated (SARS-CoV-2)
# [9] = biological target: SARS-CoV-2 spike S2 peptide 1145-1159, biotinylated (SARS-CoV-2)
binder,measurement,setting,value
"AB-1 (antibody, V domains shown) VH: EVQLVESGAEVKKPGESLKISCKGSGYTFTRYWIGWVRQMPGKGLEWMGIIYPGDSDVRYSPSFQGHVTISADKSISTAYLQWNSLKASDTAMYYCARLPQYCSKGVCYRWFDPWGQGTLVTVSS VL: EIVLTQSPSSVSASVGDRVTITCRASQGISSWLAWYQQKPGKAPKLLIYAASSLQSGVPSRFSGSGSGTDFTLTISSLQPEDFATYYCQQGHSFPYTFGQGTNLEIK",AUC,[1],3.27e+06
same,AUC,[2],30000
same,AUC,[3],3.32e+06
same,AUC,[4],27100
same,AUC,[5],3.52e+06
same,AUC,[6],21500
same,AUC,[7],3.52e+06
same,AUC,[8],18000
same,AUC,[9],1.7e+06
